Test results as given in article PMC5737834.
Values joined by “and” are separate entries in the source; they are usually repeats but may differ in a detail not shown here. Identical values can stand only once.

Target: Recombinant human SP-A1 (SP-A1^hyp) (human) (UniProt Q8IWL2)
Assay: native gel or EMSA + AUC

stoichiometry N: 3 and 6
Substance: Recombinant human SP-A1 (SP-A1^hyp) (from UniProt Q8IWL2 21-248) (natural protein)
